Tested on: S1 zinc finger array (six-finger designed ZF) (artificial (designed))
Assay: EMSA
Conditions: EMSA: ZBA buffer (composition not given), 0.05% NP-40, 0.1 mg/ml BSA, 10% glycerol, 35-75 pM target, 1.5 h at room temperature; pH not given

Sequence: CCTCTTCGCTATTACGCCAGCCATGCGTAGGGAGCCGCGGAACGTTCGATCGTACTCGAGTCAGGGTG (double strand) [S1 target site EMSA probe]
- Kd: 5 nM
